Reference: patent US20250340661A1 (JIANGSU HENGRUI PHARMACEUTICALS, published 2025)

Biological target: T1, human CD40 on the cell surface (human, UniProt P25942 21-277)
T1 construct: whole, on cells; also called Raji cell surface human CD40; human CD40 on HEK-Blue CD40L cells
Assay: flow cytometry on Raji cells, Alexa Fluor 488 anti-human IgG (H+L) detection
Protocol: Raji cells were plated at 1.5E5/well, and various concentrations of CD40 antagonistic antibodies were added. The plate was incubated at 4° C. for 1 h. After two washes with FACS buffer (PBS+2% FBS), a secondary antibody (Alexa Flour488 conjugated anti-human IgG (H+L) antibody) was added, and the plate was incubated at 4° C. for 0.5 h.
After two washes with FACS buffer, the fluorescence intensity on the cell surface was measured by flow cytometry (BD FACS Celesta).

T1 sequence (P25942 21-277): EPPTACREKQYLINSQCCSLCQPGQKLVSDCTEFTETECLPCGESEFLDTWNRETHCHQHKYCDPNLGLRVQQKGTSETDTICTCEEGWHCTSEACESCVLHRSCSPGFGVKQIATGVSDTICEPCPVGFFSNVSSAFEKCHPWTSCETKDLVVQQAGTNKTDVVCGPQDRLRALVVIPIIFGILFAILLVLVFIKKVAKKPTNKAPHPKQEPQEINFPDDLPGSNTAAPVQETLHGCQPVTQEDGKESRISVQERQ

Row | Binder | EC50 [nM]
1 | humanized anti-CD40 antibody 2F12-L2H1 (antibody, human IgG1, V domains shown) VH: EVTLKESGPVLVKPTETLTLTCTVSGFSLSSYGVSWIRQPPGKALEWLAGIGSDGSAYYASWAKSRLTISRDTNLKQVVLTMTNMDPVDTATYYCARGGITVYAMWGQGTLVTVSS VL: AFQLTQSPSSLSASVGDRVTITCQASQSISQGLAWYQQKPGKPPKLLIVGASNLASGVPSRFSGSGSGTDFTLTISSLQPEDFATYYCQSYFSSSSTVFGGGTKVEIK | 0.516
2 | humanized anti-CD40 antibody 2F12-L4H1 (antibody, human IgG1, V domains shown) VH: EVTLKESGPVLVKPTETLTLTCTVSGFSLSSYGVSWIRQPPGKALEWLAGIGSDGSAYYASWAKSRLTISRDTNLKQVVLTMTNMDPVDTATYYCARGGITVYAMWGQGTLVTVSS VL: AFQLTQSPSSLSASVGDRVTITCQASQSISTGLAWYQQKPGKPPKLLIVGASNLASGVPSRFSGSGSGTDFTLTISSLQPEDFATYYCQSYFSSSSTVFGGGTKVEIK | 0.508
3 | humanized anti-CD40 antibody 2F12-L3H1 (antibody, human IgG1, V domains shown) VH: EVTLKESGPVLVKPTETLTLTCTVSGFSLSSYGVSWIRQPPGKALEWLAGIGSDGSAYYASWAKSRLTISRDTNLKQVVLTMTNMDPVDTATYYCARGGITVYAMWGQGTLVTVSS VL: AFQLTQSPSSLSASVGDRVTITCQASQSISSGLAWYQQKPGKPPKLLIVGASNLASGVPSRFSGSGSGTDFTLTISSLQPEDFATYYCQSYFSSSSTVFGGGTKVEIK | 0.456
4 | humanized anti-CD40 antibody 2F12-L1H1 (antibody, human IgG1, V domains shown) VH: EVTLKESGPVLVKPTETLTLTCTVSGFSLSSYGVSWIRQPPGKALEWLAGIGSDGSAYYASWAKSRLTISRDTNLKQVVLTMTNMDPVDTATYYCARGGITVYAMWGQGTLVTVSS VL: AFQLTQSPSSLSASVGDRVTITCQASQSISNVLAWYQQKPGKPPKLLIVGASNLASGVPSRFSGSGSGTDFTLTISSLQPEDFATYYCQSYFSSSSTVFGGGTKVEIK | 0.549
5 | humanized anti-CD40 antibody 2F12-L2H2 (antibody, human IgG1, V domains shown) VH: EVTVKESGPVLVKPTETLTLTCTVSGFSLSSYGVSWIRQPPGKALEWLGGIGSDGSAYYASWAKSRLTISRDTNLKQVVLTMTNMDPVDTATYYCARGGITVYAMWGQGTLVTVSS VL: AFQLTQSPSSLSASVGDRVTITCQASQSISQGLAWYQQKPGKPPKLLIVGASNLASGVPSRFSGSGSGTDFTLTISSLQPEDFATYYCQSYFSSSSTVFGGGTKVEIK | 0.516
6 | humanized anti-CD40 antibody 2F12-L3H2 (antibody, human IgG1, V domains shown) VH: EVTVKESGPVLVKPTETLTLTCTVSGFSLSSYGVSWIRQPPGKALEWLGGIGSDGSAYYASWAKSRLTISRDTNLKQVVLTMTNMDPVDTATYYCARGGITVYAMWGQGTLVTVSS VL: AFQLTQSPSSLSASVGDRVTITCQASQSISSGLAWYQQKPGKPPKLLIVGASNLASGVPSRFSGSGSGTDFTLTISSLQPEDFATYYCQSYFSSSSTVFGGGTKVEIK | 0.762
7 | humanized anti-CD40 antibody 2F12-L1H2 (antibody, human IgG1, V domains shown) VH: EVTVKESGPVLVKPTETLTLTCTVSGFSLSSYGVSWIRQPPGKALEWLGGIGSDGSAYYASWAKSRLTISRDTNLKQVVLTMTNMDPVDTATYYCARGGITVYAMWGQGTLVTVSS VL: AFQLTQSPSSLSASVGDRVTITCQASQSISNVLAWYQQKPGKPPKLLIVGASNLASGVPSRFSGSGSGTDFTLTISSLQPEDFATYYCQSYFSSSSTVFGGGTKVEIK | 0.469
8 | humanized anti-CD40 antibody 9E6-L2H1 (antibody, human IgG1, V domains shown) VH: EVQLQESGPGLVKPSDTLSLTCTVSGFSLSSYDMSWIRQPPGKGLEWIGAIGGAGGTYYASWAKSRVTISVDTSLNQVSLKLSSVTAADTAVYYCARGWTRLDLWGQGTLVTVSS VL: DIQLTQSPSFLSASVGDRVTITCQASEDISSNLAWYQQKPGKPPKLLIFPASNLASGVPSRFSGSGSGTEFTLTISSLQPEDFATYYCQGGYWTSTSNFGSGFGGGTKVEIK | 1.99
9 | humanized anti-CD40 antibody 9E6-L1H1 (antibody, human IgG1, V domains shown) VH: EVQLQESGPGLVKPSDTLSLTCTVSGFSLSSYDMSWIRQPPGKGLEWIGAIGGAGGTYYASWAKSRVTISVDTSLNQVSLKLSSVTAADTAVYYCARGWTRLDLWGQGTLVTVSS VL: DIQLTQSPSFLSASVGDRVTITCQASEDISSNLAWYQQKPGKPPKLLIFPASNLASGVPSRFSGSGSGTEFTLTISSLQPEDFATYYCQGGYWTSTSNFGNVFGGGTKVEIK | 1.08
